Measurements reported in patent US20110165063A1 (published 2011).
Numbering of substitutions follows the chain as printed.

B1: murine anti-human IL-1α monoclonal antibody 3D12 (antibody, V domains shown)
VH: QIQLVQSGPELKKPGETVKISCKASGYTFRNYGMNWVKQAPGKDLKRMAWINTYTGESTYADDFKGRFAFSLETSASTAYLQINNLKNEDTATYFCARGIYYYGSSYAMDYWGQGTSVTVSS
VL: IQMTQTTSSLSASLGDRVTISCRASQDISNCLNWYQQKPDGTVKLLIYYTSRLHSGVPSRFSGSGSGTDYSLTISNLEQEDIATYFCQQGKTLPYAFGGGTKLEINR
B2: h3D12.r16 (antibody, V domains shown)
VH: EVQLVQSGAEVKKPGASVKVSCKASGYTFKYYGMNWVRQAPGQGLERMGWINTYTGQSTYADDFKGRVTFTLDTSTSTAYMELSSLRSEDTAVYYCARDIYYYGSDFAMDYWGQGTTVTVSS
VL: DIQMTQSPSSLSASVGDRVTITCRASQDISNMLNWYQQKPGKAPKLLIYYTSRLKPGVPSRFSGSGSGTDYTFTISSLQPEDIATYFCQQGKTAPYTFGQGTKLEIK
B3: h3D12.r37 (antibody, V domains shown)
VH: B2 VH with V2I, Q57E, T59R, Y103F, F107Y
VL: B2 VL with M32R, T51A, K92N, A94P
B4: h3D12.8 (antibody, V domains shown)
VH: EIQLVQSGSELKKPGASVKVSCKASGYTFTNYGMNWVRQAPGQDLERMAWINTYTGESTYADDFKGRFVFSLDTSVSTAYLQISSLKAEDTAVYFCARGIYYYGSSYAMDYWGQGTTVTVSS
VL: B2 VL with M32C, A43T, K55H, P56S, A94L, T97A
notes: also called humanized 3D12 antibody h3D12.8; VH H3D12VH.1A / VL H3D12VK.1C
B5: h3D12.16 (antibody, V domains shown)
VH: B4 VH with S9A, L11V, V69T, S71T, V76T, L81M, Q82E, I83L, K87R, A88S
VL: B2 VL with M32C, A43T, K55H, P56S, A94L, T97A
notes: also called humanized 3D12 antibody h3D12.16; VH H3D12VH.2A / VL H3D12VK.1C
B6: h3D12-362-10/372-15 (antibody, V domains shown)
VH: EVQLVQSGAEVKKPGVSVKVSCKASGYTFTTYGMHWVRQAPGQGLEWMGWINTYTGESTYADDFQGRVTFTLDTSTSTAYMELSSLRSEDTAVYFCARGIYYYGSSYAMNYWGQGTTVTVSS
VL: B2 VL with A43T, K55Y, A94L, T97A
B7: h3D12.r10 (antibody, V domains shown)
VH: B2 VH with V2I, K30A, Y31H, R47W, V68F, D99G, Y103F, D106N, F107Y
VL: B2 VL with A43T, K55R, P56S, T93K, A94P

Assays:
recombinant human IL-1α [1] = molecular target: T1, recombinant human IL-1α (human, UniProt P01583 113-271); test: cell-based or functional assay
T1 sequence: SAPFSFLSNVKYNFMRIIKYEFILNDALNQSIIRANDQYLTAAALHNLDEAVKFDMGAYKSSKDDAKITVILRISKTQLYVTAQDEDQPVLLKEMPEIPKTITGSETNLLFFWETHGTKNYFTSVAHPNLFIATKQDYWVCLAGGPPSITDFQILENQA

cynomolgus IL-1α [2] = molecular target: T2, cynomolgus IL-1α (cynomolgus, UniProt P79340 113-271, limits assumed); test: cell-based or functional assay
T2 sequence (looked up): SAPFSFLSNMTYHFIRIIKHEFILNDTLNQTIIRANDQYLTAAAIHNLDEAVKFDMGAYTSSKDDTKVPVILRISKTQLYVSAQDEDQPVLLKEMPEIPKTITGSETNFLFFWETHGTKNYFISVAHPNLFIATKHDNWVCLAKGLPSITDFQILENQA

recombinant human IL-1α [3] = molecular target: T1, recombinant human IL-1α; test: SPR (BIACORE), antibody captured, IL-1α in solution
cynomolgus IL-1α [4] = molecular target: T2, cynomolgus IL-1α; test: as above
recombinant human IL-1α [5] = molecular target: T1, recombinant human IL-1α; test: ELISA, antibody captured by anti-human Fc, biotinylated human IL-1α titrated
Experimental: To determine if anti-IL-1α antibodies bind to human IL-1α, ELISA plates (Nunc, MaxiSorp, Rochester, N.Y.) were incubated overnight at 4° C. with anti-human Fc antibody diluted in Pierce Coat buffer at 2 μg/ml (Jackson Immunoresearch, West Grove, Pa.). Plates were washed five times in washing buffer (PBS containing 0.05% Tween 20), and blocked for 1 hour at 25° C. with 200 μl per well superblock blocking buffer (Thermo scientific, #37515). Blocking buffer was removed by tapping plates, and […] of each antibody in PBS containing 10% superblock and 0.5% Tween-20 was added to the wells at 100 μl per well and incubated at 25° C. for 1 hour. The wells were washed five times in 1× PBST, and 1 mg/ml biotinylated antigen was titrated at 1:6 serial dilutions (for a range of mg to pg in PBS containing 10% superblock, 0.05% Tween 20). Each dilution of antigen was then added to the plates and incubated for 1 hour at 25° C. The wells were washed five times in 1× PBST and incubated for 1 hour at 25° C. with polyHRP streptavidin (KPL #474-3000, Gaithersburg, Md.). The wells were washed five times in 1× PBST, and 100 μl of ULTRA-TMB ELISA (Pierce, Rockford, Ill.) were added per well. Following color development, the reaction was stopped with 1N HCL and absorbance at 450 nm was measured. The half-maximal effective concentration (EC₅₀) values are shown in Table 9, and the numerical value indicates binding of anti-IL-1α antibodies to human IL-1α.

Row | Binder | IC50 for Antibody (PM), MRC-5 bioassay (IL-1α-stimulated production of IL-8) (recombinant human IL-1α [1]) | IC50 for Antibody (PM), MRC-5 bioassay (IL-1α-stimulated production of IL-8) (cynomolgus IL-1α [2]) | Kd (recombinant human IL-1α [3]) | koff (recombinant human IL-1α [3]) | kon (recombinant human IL-1α [3]) | Kd (cynomolgus IL-1α [4]) | koff (cynomolgus IL-1α [4]) | kon (cynomolgus IL-1α [4]) | EC50 (recombinant human IL-1α [5])
1 | B1 | 1.88 nM | 0.0723 nM |  |  |  |  |  |  | 
2 | B2 | 0.0006 nM | 0.0008 nM | 0.0308 nM | 2.77e-05 s⁻¹ | 900000 M⁻¹ s⁻¹ | 0.0149 nM | 1.33e-05 s⁻¹ | 901000 M⁻¹ s⁻¹ | 0.072 nM
3 | B3 | 0.0014 nM | 0.0006 nM | 0.0281 nM | 2.54e-05 s⁻¹ | 896000 M⁻¹ s⁻¹ | 0.0394 nM | 3.82e-05 s⁻¹ | 970000 M⁻¹ s⁻¹ | 0.114 nM
4 | B4 | 1.95 nM |  | 1.35 nM | 0.00274 s⁻¹ | 2.04e+06 M⁻¹ s⁻¹ |  |  |  | 0.028 nM
5 | B5 | 1.36 nM |  | 2.09 nM | 0.00253 s⁻¹ | 1.21e+06 M⁻¹ s⁻¹ |  |  |  | 0.01 nM
6 | B6 | 0.006 nM | 0.0126 nM | 0.115 nM | 4.1e-05 s⁻¹ | 355000 M⁻¹ s⁻¹ | 0.0578 nM | 2.25e-05 s⁻¹ | 389000 M⁻¹ s⁻¹ | 0.007 nM
7 | B7 | 0.0006 nM | 0.00098 nM | 0.0324 nM | 3.75e-05 s⁻¹ | 1.16e+06 M⁻¹ s⁻¹ | 0.00894 nM | 1.2e-05 s⁻¹ | 1.37e+06 M⁻¹ s⁻¹ | 0.0692 nM
